Results: patent US20250388676A1 (Sanofi, published 2025)
Changes are numbered by the printed parent chain.

Key:
[1] = target: T1, cynomolgus PD-1 (cynomolgus monkey); experiment: flow cytometry on pre-B 300.19 cells expressing cyno PD-1, detection with anti-human IgG Fc F(ab')2 [panel B]
T1 construct: whole, on cells; also called cyno PD-1; cyPD-1

[2] = target: T2, human PD-1 (human, UniProt Q15116 25-288); experiment: flow cytometry on pre-B 300.19 cells expressing human PD-1, detection with anti-human IgG Fc F(ab')2 [panel A]
T2 construct: On pre-B 300.19 cells stably expressing human PD-1, on NFAT-RE/PD-1 Jurkat reporter cells and on T cells of hGITR/hPD-1 knock-in mice; also called hPD-1; PD1 (on reporter cells)

[3] = target: T2, human PD-1; experiment: receptor occupancy by flow cytometry on activated splenic CD4+ T cells of hGITR/hPD-1 KI mice; free PD-1 detected with competing Anti-hPD-1-BV421, total PD-1 with non-competing Anti-hPD-1 NANOBODY-A647 [panel A]
Excerpt: (§1) Anti-hGITR NANOBODY®-A488 as non-competing agent detecting total GITR Activated T cells were then washed and analyzed on a Cytek® Aurora flow cytometer.

[4] = target: T2, human PD-1; experiment: receptor occupancy by flow cytometry on activated splenic CD8+ T cells of hGITR/hPD-1 KI mice; free PD-1 detected with competing Anti-hPD-1-BV421, total PD-1 with non-competing Anti-hPD-1 NANOBODY-A647 [panel A]
Excerpt: as §1

[5] = target: cynomolgus GITR (cynomolgus monkey); experiment: cell-based or functional assay
[6] = target: T2, human PD-1; experiment: cell-based or functional assay
[7] = target: T3, human GITR (human, UniProt Q9Y5U5 26-241); experiment: cell-based or functional assay
T3 sequence (looked up): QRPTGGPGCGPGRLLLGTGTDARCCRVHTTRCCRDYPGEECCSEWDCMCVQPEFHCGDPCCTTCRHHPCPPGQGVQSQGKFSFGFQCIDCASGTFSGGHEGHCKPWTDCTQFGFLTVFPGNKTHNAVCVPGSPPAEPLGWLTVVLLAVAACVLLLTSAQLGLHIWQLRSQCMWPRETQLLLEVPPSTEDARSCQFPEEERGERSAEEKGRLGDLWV

[8] = target: T1, cynomolgus PD-1; experiment: flow cytometry on pre-B 300.19 cells expressing cyno PD-1, anti-human IgG Fc detection, 4PL fit
Description: (§2) Binding properties of the bispecific molecules and controls to multiple targets expressed on cell surfaces were evaluated with flow cytometry. […] Cell suspensions were analyzed with iQue Screener 3 (Sartorius, Intellicyt). In each washing step, plates were centrifuged for 2 minutes at 300×g at 4° C., supernatants discarded and buffer dispensed by Biotek ELX405 microplate washer (BioTek). Other reagents were added either manually or with ViaFlo (Integra). EC50s were estimated by dose response modelling. Curves were fit using 4 parameter logistic regression in GraphPad (GraphPad Software Inc.).

[9] = target: T2, human PD-1; experiment: flow cytometry on pre-B 300.19 cells expressing human PD-1, anti-human IgG Fc detection, 4PL fit
Description: as §2

[10] = target: T4, cynomolgus GITR (cynomolgus monkey); experiment: flow cytometry on NFkB-NlucP/HEK293 cells expressing cyno GITR, anti-human IgG Fc detection, 4PL fit
T4 construct: whole, on cells; also called cyno GITR; cyGITR
Description: as §2

[11] = target: T3, human GITR; experiment: flow cytometry on NFkB-NlucP/HEK293 cells expressing human GITR, anti-human IgG Fc detection, 4PL fit
Description: as §2

[12] = target: T3, human GITR; experiment: receptor occupancy by flow cytometry on activated splenic CD4+ T cells of hGITR/hPD-1 KI mice; free GITR detected with competing Anti-hGITR-BV605, total GITR with non-competing Anti-hGITR NANOBODY-A488 [panel B]
Excerpt: as §1

[13] = target: T3, human GITR; experiment: receptor occupancy by flow cytometry on activated splenic CD8+ T cells of hGITR/hPD-1 KI mice; free GITR detected with competing Anti-hGITR-BV605, total GITR with non-competing Anti-hGITR NANOBODY-A488 [panel B]
Excerpt: as §1

T2 sequence (Q15116 25-288 limits assumed): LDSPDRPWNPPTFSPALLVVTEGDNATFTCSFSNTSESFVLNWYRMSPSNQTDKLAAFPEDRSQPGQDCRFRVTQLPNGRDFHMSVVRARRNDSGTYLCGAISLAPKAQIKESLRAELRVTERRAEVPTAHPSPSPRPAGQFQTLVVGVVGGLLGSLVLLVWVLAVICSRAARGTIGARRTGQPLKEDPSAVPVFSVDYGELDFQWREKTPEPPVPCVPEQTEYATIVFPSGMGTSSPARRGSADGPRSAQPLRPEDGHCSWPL

B1: GITRLmut/anti-PD-1 mAb2 (antibody, V domains shown)
VH: QLQLQESGPGLVKPSETLSLTCTVSGGSISSSSYFWGWIRQPPGKGLEWIGSIYRSGSTYYNPSLKSRVTISVDTSKNQFSLKLSSVTAADTAVYYCARGITGDPGDYWGQGTLVTVSS
VL: EIVLTQSPATLSLSPGERATLSCGASQSVPINFLAWYQQKPGLAPRLLIYEASSRHTGIPDRFSGSGSGTDFTLTISRLEPEDFAVYYCGQYGSSPYTFGQGTKLEIK
With B1 the “EC50 (read off the curve)” value [1] was ~0.4 nM, the “EC50 (read off the curve)” value [2] was ~0.2 nM and the “EC50 (read off the curve)” value [3] was ~0.4 nM. The “EC50 (read off the curve)” value [4] was ~0.3 nM.

B2: GITRLmut/anti-PD-1 mAb1 (antibody, V domains shown)
VH: B1 VH with S31T
VL: B1 VL with P30S, H56A, G90Q
With B2 the “EC50 (read off the curve)” value [1] was ~0.5 nM and the “EC50 (read off the curve)” value [2] was ~0.3 nM.

B3: GITRL/anti-PD-1 mAb2 (bispecific antibody, human IgG1, kappa, L234A L235A)
heavy: not shown
light: EIVLTQSPATLSLSPGERATLSCGASQSVPINFLAWYQQKPGLAPRLLIYEASSRHTGIPDRFSGSGSGTDFTLTISRLEPEDFAVYYCGQYGSSPYTFGQGTKLEIKRTVAAPSVFIFPPSDEQLKSGTASVVCLLNNFYPREAKVQWKVDNALQSGNSQESVTEQDSKDSTYSLSSTLTLSKADYEKHKVYACEVTHQGLSSPVTKSFNRGEC
notes: Single-chain GITRL trimer inserted between VH and CH1 of each heavy chain; bivalent for PD-1, hexavalent for GITR; also called GITRL trimer/anti-PD-1 mAb2; single-chain GITRL trimer/anti-PD-1 mAb2
In the case of B3, the “cyGITR EC50 (reporter assay)” value [5] is reported as 0.0083 nM, the “hPD-1 IC50 (reporter assay)” value [6] is reported as 0.5 nM and the “hGITR EC50 (reporter assay)” value [7] is reported as 0.0077 nM. The EC50 [8] was 0.37 nM, the EC50 [9] was 0.24 nM and the EC50 [10] was 0.034 nM. For the same binder, the EC50 [11] was 0.034 nM, the “EC50 (read off the curve)” value [12] was ~0.2 nM and the “EC50 (read off the curve)” value [3] was ~0.03 nM. The “EC50 (read off the curve)” value [13] was ~0.2 nM and the “EC50 (read off the curve)” value [4] was ~0.03 nM.

B4: GITRL/anti-PD-1 mAb1 (bispecific antibody, human IgG1, kappa, L234A L235A)
heavy: not shown
light: B3 light with P30S, H56A, G90Q
notes: Single-chain GITRL trimer inserted between VH and CH1 of each heavy chain; bivalent for PD-1, hexavalent for GITR; also called GITRL trimer/anti-PD-1 mAb1; single-chain GITRL trimer/anti-PD-1 mAb1
B4 was tested, and the “cyGITR EC50 (reporter assay)” value [5] was 0.01 nM, the “hPD-1 IC50 (reporter assay)” value [6] was 0.56 nM and the “hGITR EC50 (reporter assay)” value [7] was 0.0087 nM. The EC50 [8] was 0.58 nM, the EC50 [9] was 0.33 nM and the EC50 [10] was 0.014 nM. The EC50 [11] was 0.014 nM.
